Laboratory results: patent publication US20180142000A1
Values joined by “and” are separate entries in the source; they are usually repeats but may differ in a detail not shown here. Equal entries are not always repeated. Where two headings read alike, the source gives them in different places.

Columns and labels:
[1] = molecular target: C. jejuni (strain 81-176) flagella (Campylobacter jejuni strain 81-176)
[2] = molecular target: C. jejuni (strain 81-176) flagella (Campylobacter jejuni strain 81-176); experiment: SPR (Biacore 3000), single-cycle kinetics, […]
[3] = molecular target: C. jejuni (strain 81-176) flagella (Campylobacter jejuni strain 81-176); experiment: ELISA on coated flagella, approximate affinity

B1: FlagV6M (VHH)
VHH: QVKLEESGGGLVQAGGSLRVSCTASVSTFSINALGWYRQAPGKARELVAAIGSDGTVYYTDSVKGRFTISRDNAKNTVSLQMSSLKPEDTAVYYCNAAGKRIGSDGSIWFAVASFGSWGQGTQVTVSS
- Kd [1]: 0.025 µM
- koff [1]: 0.03 s⁻¹
- kon [1]: 1e+06 M⁻¹ s⁻¹

B2: FlagV1M (VHH)
VHH: QVKLEESGGGLVQAGGSRRLSCATSGLTFRNFHMAWFRQVAGKEREVVAAISWSRDRQYYPDPVKGRFTITRDNAKNTVYLQMNSLKPEDTAVYYCAARTASASGDWYKGSYQYWGQGTQVTVSS
- Kd [2]: 0.0239 µM
- koff [2]: 0.00563 s⁻¹
- kon [2]: 236000 M⁻¹ s⁻¹
- Kd [3]: 0.02 µM and 0.03 µM

B3: FlagV1MDSB (VHH)
VHH: QVKLEESGGGLVQAGGSRRLSCATSGLTFRNFHMAWFRQVAGKEREVVCAISWSRDRQYYPDPVKGRFTCTRDNAKNTVYLQMNSLKPEDTAVYYCAARTASASGDWYKGSYQYWGQGTQVTVSS
- Kd [2]: 0.0182 µM
- koff [2]: 0.0028 s⁻¹
- kon [2]: 153000 M⁻¹ s⁻¹

B4: FlagV1F23MDSB (VHH)
VHH: QVQLVESGGGLVQAGGSRRLSCATSGLTFRNFHMAWFRQVAGKEREVVCAISWSRDRQYYPDPVKGRFTCTRDNAKNTVYLQMNSLKPEDTAVYYCAARTASASGDWYKGSYQYWGQGTQVTVSS
- Kd [2]: 0.0173 µM
- koff [2]: 0.00286 s⁻¹
- kon [2]: 165000 M⁻¹ s⁻¹

B5: FlagV1F23M (VHH)
VHH: QVQLVESGGGLVQAGGSRRLSCATSGLTFRNFHMAWFRQVAGKEREVVAAISWSRDRQYYPDPVKGRFTITRDNAKNTVYLQMNSLKPEDTAVYYCAARTASASGDWYKGSYQYWGQGTQVTVSS
- Kd [2]: 0.0186 µM
- koff [2]: 0.00426 s⁻¹
- kon [2]: 229000 M⁻¹ s⁻¹
